Source: article PMC5612608 (Contrast Media & Molecular Imaging, 2017)

Experiments:
PC-3 xenografts = test: In vivo binding specificity in PC-3 xenografted Balb/c nu/nu mice; set-up: species or system mouse; details: female Balb/c nu/nu mice with subcutaneous PC-3 tumors, 3 h pi, 45 pmol, coinjected 20 nmol
Description: (§1) The animal experiments were planned and performed in accordance with the national legislation on the protection of laboratory animals, and the study plans were approved by the local committee for animal research ethics. Groups of 3-4 mice were used per data point. Biodistribution studies were performed on female immunocompetent NMRI mice (weight: 30 ± 2 g), female Balb/c nu/nu (inoculated 10 million PC-3 cells/mouse 21 days before the experiment, weight 17 ± 2 g), and male inbred immunodeficient NOD-SCID mice (5 million PC-3 cells/mouse, 35 days before the experiment, 31 ± 2 g).
(§2) Tumor targeting specificity and biodistribution over time were studied on PC-3 xenografted female Balb/c nu/nu and male NOD-SCID mice, respectively. […] An additional group of animals was coinjected with an excess of nonlabeled peptide (20 nmol). The mice were sacrificed at 3 h pi by intraperitoneal injection of Ketalar-Rompun solution (10 mg/mL Ketalar and 1 mg/mL Rompun; 20 μL/g body weight). […] The mice were euthanized at 3 and 24 h pi by cervical dislocation. Tumors, blood, and other organs of interest were collected, weighed, and measured on radioactivity content in a gamma-counter. […] The organ uptake values were expressed as a percentage of injected dose per gram of tissue (% ID/g), except for the gastrointestinal tract and the remaining carcass, which were calculated as % ID per whole sample.

in vivo [1] = test: in vivo; set-up: species or system mouse; details: female, NMRI, mouse, in vivo, iv, 45 pmol, total radioactivity
Description: (§3) The animal experiments were planned and performed in accordance with the national legislation on the protection of laboratory animals, and the study plans were approved by the local committee for animal research ethics. Groups of 3-4 mice were used per data point. Biodistribution studies were performed on female immunocompetent NMRI mice (weight: 30 ± 2 g), female Balb/c nu/nu (inoculated 10 million PC-3 cells/mouse 21 days before the experiment, weight 17 ± 2 g), and male inbred immunodeficient NOD-SCID mice (5 million PC-3 cells/mouse, 35 days before the experiment, 31 ± 2 g). […] The injected radioactivity was adjusted to 30 kBq per animal. […] The mice were euthanized at 30 min pi by intraperitoneal injection of Ketalar-Rompun solution (10 mg/mL Ketalar and 1 mg/mL Rompun; 20 μL/g body weight). Blood samples were collected by cardiac puncture. Lung, liver, spleen, pancreas, stomach, small intestines, kidneys, muscle, bone, and the rest of intestines with their content were collected. The organs were weighed and their radioactivity content was measured in a gamma-counter. The data were corrected for background radiation. The organ uptake values were expressed as a percentage of injected dose per gram of tissue (% ID/g), except for the gastrointestinal tract and the remaining carcass, which were calculated as % ID per whole sample.

murine GRPRs = test: in vivo; set-up: species or system mouse; details: female NMRI mice, 30 min pi, 45 pmol, coinjected 20 nmol unlabeled peptide
Description: as §3

[2] = Labeling stability: EDTA challenge and PBS, analysed by ITLC; format: physicochemical; details: chemical (label) stability, ITLC eluted with citric acid 0.2 M pH 2.0, average ± SD
Description: Radiolabeling with ^57Co was performed using 3.8–10 nmol (aq. 1 nmol/μL) of NOTA-PEG2-RM26 buffered with 80 μL ammonium acetate (0.2 M, pH 5.5). The mixture was incubated with ^57Co cobalt chloride (10–50 MBq) for 30 min at 60°C. For ^55Co labeling, 1.3 nmol of NOTA-PEG2-RM26 buffered with 80 μL ammonium acetate (0.2 M, pH 5.5) was heated by microwave irradiation for 1 min at 850 W in a sealed vial using a conventional microwave oven (Samsung MW82N-B). […] Labeling yield, radiochemical purity, and in vitro stability were analyzed using instant thin-layer chromatography (ITLC) strips (Agilent Technologies) eluted with citric acid (0.2 M, pH 2.0). In this system, free ^57/55Co migrates with the eluent front (Rf = 1.0) and the radiolabeled construct stays on the application point (Rf = 0.0). The system was previously validated by sodium dodecyl sulfate polyacrylamide gel electrophoresis (SDS-PAGE) and radio-HPLC [7, 8].

in vivo [3] = details: male, NOD-SCID, mouse, iv, 16.8 pmol, total radioactivity
Description: as §1, §2

PC-3 cells = test: Cellular processing (binding and internalization, acid wash) by PC-3 cells; format: cell-based, human; details: 1 nM, 37°C, 24 h incubation, 3 dishes
Description: The cells were cultured in RPMI-1640 media supplemented with 10% fetal calf serum, PEST (penicillin 100 IU/mL, streptomycin 100 μg/mL), and 2 mM L-glutamine (all from Biochrom AG, Berlin, Germany). This medium is referred to as complete medium in the text. Trypsin-EDTA (0.05% trypsin, 0.02% EDTA in buffer; Biochrom AG) was used for cell detachment. All in vitro experiments were performed in triplicate. […] At predetermined time points (1, 2, 4, 8, and 24 h after the start of incubation) the medium from 3 dishes was discarded and the cells were washed with ice-cold serum-free medium. The membrane-bound and internalized radioactivity were collected using the acid wash method described earlier.

CC(C)C[C@H](NC(=O)C[C@H](O)[C@H](CC(C)C)NC(=O)[C@H](Cc1c[nH]cn1)NC(=O)CNC(=O)[C@@H](NC(=O)[C@H](C)NC(=O)[C@H](Cc1c[nH]c2ccccc12)NC(=O)[C@H](CCC(N)=O)NC(=O)[C@@H](Cc1ccccc1)NC(=O)COCCOCCNC(=O)CN1CCN(CC(=O)O)CCN(CC(=O)O)CC1)C(C)C)C(N)=O [^57Co-NOTA-PEG2-RM26]
Tumor uptake and uptake in GRPR-expressing organs on coinjection of excess unlabeled peptide (PC-3 xenografts): inhibited
tissue uptake at 0.5 h (in vivo [1]; kidney retention): 6 ± 2 %ID/g
tissue uptake at 0.5 h (in vivo [1]; liver uptake): 0.65 ± 0.05 %ID/g
Accumulated radioactivity in receptor-positive organs (pancreas, small intestine, stomach) on coinjection of unlabeled peptide (murine GRPRs): significantly lower
Release in the presence of excess EDTA ([2]; 1000-fold molar excess of EDTA disodium salt, 1 h, room temperature): 0.7 ± 0.2%
Release in PBS ([2]; PBS, 1 h incubation at room temperature): 0.07 ± 0.11%
tissue uptake at 3 h (in vivo [3]): 0.05 ± 0.02 %ID/g
Internalized fraction of cell-associated radioactivity (PC-3 cells): 12%
